The text below walks through data of article PMC9740503, “[^68Ga]Ga-DATA^5m-LM4, a PET Radiotracer in the Diagnosis of SST2R-Positive Tumors: Preclinical and First Clinical Results” (International Journal of Molecular Sciences, 2022).

One data set addresses T1, human SST2R (Homo sapiens, UniProt P30874).
T1 construct: expressed in transfected cells
Kind of data set: Competition binding against [125I-Tyr25]LTT-SS28 in HEK293-SST2R cell membranes. As to conditions: HEK293-SST2R cell membrane homogenates; 1 h at 22 °C; 50 mM HEPES pH 7.4 binding buffer; mean ± sd, n = 3 independent experiments in triplicate; read-out: IC50, displacement of [125I-Tyr25]LTT-SS28 from SST2R binding sites. The procedure:
The binding affinities of DATA^5m-LM4 and [^natGa]Ga-DATA^5m-LM4 for the human SST2R were determined via competition binding assays against [^125I-Tyr^25]LTT-SS28 in freshly harvested HEK293-SST2R cell membranes. As depicted in Figure 2, DATA^5m-LM4 as well as its [^natGa]Ga-tagged version displaced [^125I-Tyr^25]LTT-SS28 from SST2R-binding sites in the membrane homogenates in a monophasic and dose-dependent manner.
Competition binding assays for DATA^5m-LM4 and [^natGa]Ga-DATA^5m-LM4 were performed in freshly harvested HEK293-SST2R cell membranes against [^125I-Tyr^25]LTT-SS28 [30, 33]. […] Filters were collected and their activity measured in a γ-counter (automated multi-sample well-type instrument with a NaI(Tl) 3″ crystal, Canberra Packard Cobra^TM Quantum U5003/1, Auto-Gamma® counting system). The half-maximal inhibitory concentration (IC50) values were calculated by nonlinear regression for a one-site model applying the PRISM^TM 6.0 GraphPad software (San Diego, CA, USA) and represent mean IC50 ± sd values from at least three independent experiments were performed in triplicate.

The subject of another data set is HEK293-SST2R cells. Put plainly: Radioligand uptake/internalization in HEK293-SST2R cells. As to conditions: 1 h at 37 °C, 0.5 pmol total peptide, specific, % of total added activity, mean ± sd, 3 independent experiments in triplicate. It is filed as cell-based, human. The procedure:
This distinct cell distribution pattern between [^67Ga]Ga-DATA^5m-LM4 and [^67Ga]Ga-DOTA-TOC is consistent with an SST2R antagonist and agonist behavior, respectively. […] Cells were seeded in poly-lysine coated six-well plates (1 × 10^6/well) and grew to confluent monolayers overnight. At the day of the experiment, plates were placed on ice and rinsed twice with chilled internalization medium (DMEM Glutamax-I supplemented by 1% (v/v) FBS). […] In the upper three wells internalization medium was added (150 μL, total) and in the lower three a solution of TATE to a final concentration of 1 μM (150 μL, non-specific). After 60 min incubation at 37 °C, the medium was removed and cells were washed with ice-cold 0.5% BSA-PBS. Cells were incubated (2 × 5 min) at ambient temperature in acid wash buffer (50 mM glycine in 0.1 M NaCl, pH 2.8) and supernatants were collected (membrane-bound fraction). After rinsing with 0.5% BSA-PBS, the cells were lysed by treatment with 1 N NaOH; the lysates were collected (internalized fraction). Samples were measured in the γ-counter and cell-associated/internalized radioactivity vs. total added activity per well was calculated. Specific values were obtained by subtracting values in the presence of excess TATE (lower well triplicates) from those without the addition of blocker (upper well triplicates). […]

Data set [1] is described as follows: Biodistribution in SCID mice bearing twin HEK293-SST2R and wtHEK293 tumors. It is filed as in vivo. As to conditions: male, mouse, iv, 10 pmol, total radioactivity. The procedure:
Inocula containing a suspension of freshly-harvested HEK293-SST2R cells (150 μL, 1.2 × 10^7cells in normal saline) and wtHEK293 cells (150 μL, 0.6 × 10^7 cells in normal saline) were subcutaneously (sc) injected in the right and left flanks of male SCID mice (21.5–25.0 g body weight, six weeks of age on arrival day; NCSR “Demokritos” Animal House, Athens, Greece). Mice were kept under aseptic conditions for about 2 weeks until well-palpable tumors (300–600 mg) were grown at the inoculation sites. […] Samples of blood and tissues of interest were collected along with implanted tumors, weighted and counted in the gamma counter. Biodistribution results were calculated as percent of the injected activity per gram tissue (%IA/g) with the aid of appropriate standards of the administered dose and the Microsoft Excel program. Results are presented as mean %IA/g values ± sd, n = 4 per time point, as determined by the PRISM^TM 6.0 GraphPad software (San Diego, CA, USA). […]

A further data set deals with SST2R. As to conditions: against the same radioligand; read-out: IC50, SST2R autoradiography; cited from earlier work. The source says:
On the other hand, by changing the metal to Lu the IC50 determined for [^natL ...

Like-named read-outs stand apart in the source and are kept apart here. Positions of bridges follow the written chain, without caps; N, C: chain ends. Non-standard residues stand in square brackets, D forms with d. Residues, ends and D or L forms follow the SMILES beside them. *: point of attachment. DOTA = O=C(O)CN1CCN(CC(=O)O)CCN(CC(=O)*)CCN(CC(=O)O)CC1; X1 = CN(CC(=O)O)C1(CCCCC(=O)*)CN(CC(=O)O)CCN(CC(=O)O)C1; dPhe(4-NHCONH2) = NC(=O)Nc1ccc(C[C@@H](N)C(=O)O)cc1; Phe(4-Cl) = N[C@@H](Cc1ccc(Cl)cc1)C(=O)O; 4Pal = N[C@@H](Cc1ccncc1)C(=O)O

T1 sequence (P30874 whole entry): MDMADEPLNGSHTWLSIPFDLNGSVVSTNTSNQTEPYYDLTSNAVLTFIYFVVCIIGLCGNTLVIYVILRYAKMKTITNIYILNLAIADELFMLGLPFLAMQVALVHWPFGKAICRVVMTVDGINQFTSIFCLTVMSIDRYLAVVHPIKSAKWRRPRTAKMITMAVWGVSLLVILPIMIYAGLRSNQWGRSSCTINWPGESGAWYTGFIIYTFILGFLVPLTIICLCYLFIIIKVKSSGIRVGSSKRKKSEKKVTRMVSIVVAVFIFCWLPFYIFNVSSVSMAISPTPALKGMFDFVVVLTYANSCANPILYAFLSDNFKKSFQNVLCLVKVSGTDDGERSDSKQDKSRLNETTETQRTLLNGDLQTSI

Take `C[C@@H](O)[C@@H]1NC(=O)[C@H](CCCCN)NC(=O)[C@@H](Cc2ccc(NC(N)=O)cc2)NC(=O)[C@H](Cc2ccncc2)NC(=O)[C@H](NC(=O)[C@H](Cc2ccc(Cl)cc2)NC(=O)CCCCC2(N(C)CC(=O)O)CN(CC(=O)O)CCN(CC(=O)O)C2)CSSC[C@@H](C(=O)N[C@H](Cc2ccc(O)cc2)C(N)=O)NC1=O` [DATA^5m-LM4] (X1-[Phe(4-Cl)][dC][4Pal][dPhe(4-NHCONH2)]KTC[dY]-NH2; disulfide 2-7): the IC50 (as a rule, the point on the concentration scale where inhibition reaches its midpoint) at human SST2R is 1.24 ± 0.2 nM.
On to `C[C@@H](O)[C@@H]1NC(=O)[C@H](CCCCN)NC(=O)[C@@H](Cc2ccc(NC(N)=O)cc2)NC(=O)[C@H](Cc2ccc(O)cc2)NC(=O)[C@H](NC(=O)[C@H](Cc2ccc(Cl)cc2)NC(=O)CN2CCN(CC(=O)O)CCN(CC(=O)O)CCN(CC(=O)O)CC2)CSSC[C@@H](C(=O)N[C@H](Cc2ccc(O)cc2)C(N)=O)NC1=O` [[^67Ga]Ga-DOTA-LM3, metal not drawn] ({DOTA}-[Phe(4-Cl)][dC]Y[dPhe(4-NHCONH2)]KTC[dY]-NH2; disulfide 2-7), for which, in the data set on HEK293-SST2R cells, the “total cell uptake (membrane bound + internalized)” value was 2.51 ± 0.36%. In addition, the tissue uptake at 1 h in data set [1] (HEK293-SST2R tumor (Tu+), 1 h pi, iv 10 pmol total peptide, mean ± sd, n = 4, read-out: Tu+ (HEK293-SST2R tumor) uptake) came to 25.3 ± 6.23 %ID/g; in data set [1] (in vivo, Blood uptake), 1.18 ± 0.03 %ID/g; in data set [1] (in vivo, Femur uptake), 1.39 ± 0.39 %ID/g; in data set [1] (in vivo, Heart uptake), 1.54 ± 0.78 %ID/g; in data set [1] (in vivo, Intestines uptake), 1.26 ± 0.52 %ID/g; in data set [1] (in vivo, Kidneys uptake), 36 ± 5.96 %ID/g. In addition, the tissue uptake at 1 h is 1.82 ± 0.63 %ID/g in data set [1] (in vivo, Liver uptake); 3 ± 0.77 %ID/g in data set [1] (in vivo, Lungs uptake); 0.56 ± 0.22 %ID/g in data set [1] (in vivo, Muscle uptake); 1.49 ± 0.71 %ID/g in data set [1] (in vivo, Pancreas uptake); 1.73 ± 0.85 %ID/g in data set [1] (in vivo, Spleen uptake); 0.8 ± 0.17 %ID/g in data set [1] (in vivo, Stomach uptake). Also, the tissue uptake at 1 h in data set [1] (wtHEK293 tumor (Tu-), 1 h pi, iv 10 pmol total peptide, mean ± sd, n = 4, read-out: Tu- (wtHEK293 tumor) uptake) was 1.45 ± 0.27 %ID/g. The tissue uptake at 4 h in data set [1] (HEK293-SST2R tumor (Tu+), 4 h pi, iv 10 pmol total peptide, mean ± sd, n = 4, read-out: Tu+ (HEK293-SST2R tumor) uptake) amounted to 16.8 ± 1.22 %ID/g; in data set [1] (in vivo, Blood uptake), 1.73 ± 0.47 %ID/g; in data set [1] (in vivo, Femur uptake) it was 0.67 ± 0.14 %ID/g; in data set [1] (in vivo, Heart uptake) it was 0.66 ± 0.14 %ID/g; in data set [1] (in vivo, Intestines uptake), 1.41 ± 0.37 %ID/g; in data set [1] (in vivo, Kidneys uptake), 37.6 ± 3.44 %ID/g. Besides, the tissue uptake at 4 h is 1.43 ± 0.19 %ID/g in data set [1] (in vivo, Liver uptake); 1.21 ± 0.24 %ID/g in data set [1] (in vivo, Lungs uptake); 0.25 ± 0.06 %ID/g in data set [1] (in vivo, Muscle uptake); 1.24 ± 0.44 %ID/g in data set [1] (in vivo, Pancreas uptake); 1.06 ± 0.25 %ID/g in data set [1] (in vivo, Spleen uptake); 0.5 ± 0.08 %ID/g in data set [1] (in vivo, Stomach uptake). The tissue uptake at 4 h in data set [1] (wtHEK293 tumor (Tu-), 4 h pi, iv 10 pmol total peptide, mean ± sd, n = 4, read-out: Tu- (wtHEK293 tumor) uptake) is 1.13 ± 0.31 %ID/g.
In the case of “DOTA-DPhe-c[DCys-Tyr-DAph(Cbm)-Lys-Thr-Cys]-DTyr-NH2 (disulfide) [DOTA-LM3, DOTA-derivatized SST2R antagonist LM3]”, the concentration for half-maximal inhibition (IC50) with SST2R was 1.4 ± 0.5 nM.
Take “[^natGa]Ga-DATA^5m-LM4: DATA5m-LM4 tagged with natural gallium (DATA5m-[Phe(4-Cl)][dC][4Pal][dPhe(4-NHCONH2)]KTC[dY]-NH2; disulfide 2-7; also: complexed with natural gallium)”: the IC50 in the data set with human SST2R was determined as 1.61 ± 0.32 nM.
